± gives the standard deviation of the averaged measurements.

Experimental findings from the supplement of paper PMC10126150 are described below.
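Further: ATP exposure 15 min at 22 °C before imaging.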

This series has as its system ATP. In words: switch fluorescence ratio, 500 uM ATP over buffer (Cy3 cluster intensity, sum of 5 cycles each) (fold (ratio)); higher = stronger signal-on switching upon ATP binding; sequences stand for … in TCGTCGGCAGCGTCAGATGTGTATAAGAGACAGTTTTTTTTTTTTTTTTTTTTTTTTT…TC. The note with it: aptamer strand: ATP DNA aptamer (quencher-CACCTGGGGGAGTATTGCGGAGGAAGG + anchor), 100 nM annealed; ATP concentration: 500 uM. The procedure, abridged: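 Between each of five buffer/ATP cycles, the flow-cell was stripped with NaOH and re-annealed. Each cycle imaged Cy3-labelled switching-strand clusters, annealed to 100 nM quencher-labelled ATP aptamer on a modified Illumina MiSeq flow-cell, first in selection buffer and then after 15 min with 500 uM ATP at 22 °C. The fluorescence ratio is summed target-cycle over summed buffer-cycle Cy3 intensity per cluster, averaged per switch-domain sequence, with clusters outside 100-1000 RFU excluded.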
As to ATAAGCGTCG, the switch fluorescence ratio worked out at 1.02 ± 0.013. On to TTTGAGTAAG, for which the switch fluorescence ratio is 1.02 ± 0.046. As to TTATAATGGC, the switch fluorescence ratio worked out at 1.02 ± 0.08. As to GCGGGGTGTG, the switch fluorescence ratio was found to be 1.016 ± 0.0033. Turning to AGGGGGAACG, the switch fluorescence ratio worked out at 1.01 ± 0.016.

Regarding TGCATCATAA, the switch fluorescence ratio came to 1.01 ± 0.024. Turning to AAGTAATAGG, the switch fluorescence ratio worked out at 1.03 ± 0.019. With CCGGGATTGA, the switch fluorescence ratio is 1.083 ± 0.0038. Consider TTTGTTCGGC, for which the switch fluorescence ratio turned out to be 1 ± 0.033. For TATGTGTGTG, the switch fluorescence ratio was determined as 0.9889 ± 0.0089. As to TTGATCAACG, the switch fluorescence ratio is 0.995 ± 0.014. For the sequence TAAGGGGTAG, the switch fluorescence ratio is 0.994 ± 0.052.

CTAGCTGTAG: the switch fluorescence ratio came out at 1.04 ± 0.03. The figure for CGAAGCTCTG is 1.09 ± 0.013; for GTTGGGTAGG it is 0.963 ± 0.028. TGGCGTTGGG: the switch fluorescence ratio was determined as 1.02 ± 0.046. For AAAAACCTCG the value was 1.05 ± 0.013; for TCTGAGTAGG, 1 ± 0.037.

Take CCGGGGAAGT: the switch fluorescence ratio is 0.978 ± 0.031. As for ATGAGCGCAC, the switch fluorescence ratio came to 1.06 ± 0.024. The figure for TGTTTTTTTT is 0.999 ± 0.029; for AGCAGATAGG it is 1.03 ± 0.079.

With TAGGGGACGT, the switch fluorescence ratio is 0.992 ± 0.063. The figure for TTGTGTGTTT is 0.989 ± 0.024; for ATGTGGTCT it is 1.02 ± 0.03.

For GAAAAAGTGG, the switch fluorescence ratio was determined as 0.998 ± 0.014.

As for CGGGGTGCGG, the switch fluorescence ratio was 1 ± 0.056.

Regarding ATCTGCGGGA, the switch fluorescence ratio was 1.05 ± 0.042. Consider GAGAGTTGTG, for which the switch fluorescence ratio is 0.988 ± 0.034. As for CCATACGGGG, the switch fluorescence ratio came out at 0.998 ± 0.023. With AACGTAAATT, the switch fluorescence ratio is 1.33 ± 0.31. GACGGGAGCT: the switch fluorescence ratio amounted to 1.06 ± 0.021. Regarding TGTTCCGCTT, the switch fluorescence ratio was determined as 2.16 ± 0.17. Regarding GGGGGTGAAC, the switch fluorescence ratio stood at 0.98 ± 0.029. Take AATTGTATGT: the switch fluorescence ratio was determined as 0.989 ± 0.029.

For CTCGTAGCAG, the switch fluorescence ratio is 1.17 ± 0.013. In the case of TAATTTTTTG, the switch fluorescence ratio worked out at 0.997 ± 0.021. Take CATATTGGGG: the switch fluorescence ratio is 0.963 ± 0.022. For TGAACGGTTC the value was 1.02 ± 0.021; for TCGGGGGAGG, 0.983 ± 0.022; for ATTAGTCGCG, 1.01 ± 0.014. Take TTGGTATCTT: the switch fluorescence ratio worked out at 0.999 ± 0.025. As to GGATTGGTAA, the switch fluorescence ratio stood at 0.9919 ± 0.00028. Regarding AAAGTCTGGA, the switch fluorescence ratio stood at 1.028 ± 0.01. For the sequence AGTGGTATAG, the switch fluorescence ratio turned out to be 1.01 ± 0.034. For TTGGCCTTAG the value was 0.972 ± 0.015; for TTTGTTAATA, 1.02 ± 0.014. Consider TTTAAGGGTA, for which the switch fluorescence ratio was 0.994 ± 0.023. The figure for CTGCTAGACC is 1.21 ± 0.036; for GCTGAAAGTG it is 1 ± 0.057; for TCTTTTAATT it is 1.05 ± 0.07. Regarding CGCATTTAGG, the switch fluorescence ratio amounted to 1.08 ± 0.027. For CTCGTTGGGG the value was 0.979 ± 0.015; for TAATGTGTTA, 1.04 ± 0.13.

For the sequence CCAAATTTAA, the switch fluorescence ratio worked out at 1.03 ± 0.01.

With ACACTAGTGT, the switch fluorescence ratio was 0.985 ± 0.032. As for TCTTGGGATT, the switch fluorescence ratio stood at 0.981 ± 0.0029. Regarding GATTATGCGG, the switch fluorescence ratio came to 0.9849 ± 0.006.

Regarding GGTTTCCAAT, the switch fluorescence ratio is 1 ± 0.02. In the case of GCGTAATCCG, the switch fluorescence ratio worked out at 1.02 ± 0.042. As for AGATTTTTCG, the switch fluorescence ratio worked out at 1.04 ± 0.024. Consider TATAAAGGG, for which the switch fluorescence ratio stood at 0.956 ± 0.022. On to TTTCCTGGCT, for which the switch fluorescence ratio was determined as 1.02 ± 0.032. As to AATATGGGGT, the switch fluorescence ratio was 1.01 ± 0.014. Consider AAGCTGGCTT, for which the switch fluorescence ratio is 1.024 ± 0.0056. For GCATATTAGG the value was 0.999 ± 0.03; for GGCGTTTGTC, 1.03 ± 0.032; for AAGGTTTAAG, 0.999 ± 0.011. With CTTTGGGGGG, the switch fluorescence ratio was 0.982 ± 0.025. For the sequence CGAGGGGATG, the switch fluorescence ratio came out at 1.006 ± 0.0088.

For the sequence TCACTGGGGA, the switch fluorescence ratio was 0.995 ± 0.03. The figure for TACGGGTGGG is 1.169 ± 0.01; for TTTTGATCTA it is 0.97 ± 0.019; for GAGGGTGTGG it is 1.02 ± 0.022. TTTGGATACG: the switch fluorescence ratio was 1.01 ± 0.011. With AAATCGTACG, the switch fluorescence ratio was determined as 0.988 ± 0.048.

As for ATCCGGCGAT, the switch fluorescence ratio amounted to 1.35 ± 0.018. Take GCACGAATGC: the switch fluorescence ratio is 1.06 ± 0.025.
